According to patent US20210063414A1, “METHODS FOR PREVENTING AND/OR TREATING BONE LOSS CONDITIONS BY MODULATING IRISIN” (Dana-Farber Cancer Institute, Inc., priority 2018, published 2021):

Molecular target: T1, integrin α5/β1 (Homo sapiens, UniProt P05556+P08648)
T1 construct: expressed in transfected cells; host or cells: HEK293T
Experiment: FAK phosphorylation in HEK293T cells with forced expression of integrin α5/β1
Assay type: cell-based
Procedure: 100 nM irisin was incubated with 5 nM indicated his-tag integrins followed by immunoprecipitation using Ni-NTA agaroses. Precipitated integrins and co-precipitated irisin were analyzed by immunoblot analysis. […] HEK293T cells were seeded and incubated until 50% cell density. The cells were transfected with 0.1 μg plasmids of indicated integrins. After 48 hours, the cells were re-split to indicated dose of vitronectin-coated plates. Cells were incubated with culture medium for 3 hours. Cells were lysed to detect the indicated protein level using immunoblot analysis. FIG. 15C and FIG. 15D show the immunoblot data. Cells were treated and analyzed as FIG. 14B except using plasmids encoding integrin α5/β1 or integrin α11/β1 (FIG. 15C) integrin αV/β1(FIG. 15D).
HEK293T cells were set up for experiments at 1×10^5 cells per well in 6 well plate. On day 2, cells were transiently transfected with the indicated plasmids with FuGENE® 6 reagent (Roche Applied Science) according to the manufacturer's protocol. […]
Cells were harvested in RIPA buffer containing protease-inhibitor cocktail and phosphataseinhibitor cocktail. […] Protein levels were analyzed via western blot using indicated antibody. […] Protein levels were analyzed using western blot against indicated antibody.

T1 sequence (P08648 42-894 limits assumed): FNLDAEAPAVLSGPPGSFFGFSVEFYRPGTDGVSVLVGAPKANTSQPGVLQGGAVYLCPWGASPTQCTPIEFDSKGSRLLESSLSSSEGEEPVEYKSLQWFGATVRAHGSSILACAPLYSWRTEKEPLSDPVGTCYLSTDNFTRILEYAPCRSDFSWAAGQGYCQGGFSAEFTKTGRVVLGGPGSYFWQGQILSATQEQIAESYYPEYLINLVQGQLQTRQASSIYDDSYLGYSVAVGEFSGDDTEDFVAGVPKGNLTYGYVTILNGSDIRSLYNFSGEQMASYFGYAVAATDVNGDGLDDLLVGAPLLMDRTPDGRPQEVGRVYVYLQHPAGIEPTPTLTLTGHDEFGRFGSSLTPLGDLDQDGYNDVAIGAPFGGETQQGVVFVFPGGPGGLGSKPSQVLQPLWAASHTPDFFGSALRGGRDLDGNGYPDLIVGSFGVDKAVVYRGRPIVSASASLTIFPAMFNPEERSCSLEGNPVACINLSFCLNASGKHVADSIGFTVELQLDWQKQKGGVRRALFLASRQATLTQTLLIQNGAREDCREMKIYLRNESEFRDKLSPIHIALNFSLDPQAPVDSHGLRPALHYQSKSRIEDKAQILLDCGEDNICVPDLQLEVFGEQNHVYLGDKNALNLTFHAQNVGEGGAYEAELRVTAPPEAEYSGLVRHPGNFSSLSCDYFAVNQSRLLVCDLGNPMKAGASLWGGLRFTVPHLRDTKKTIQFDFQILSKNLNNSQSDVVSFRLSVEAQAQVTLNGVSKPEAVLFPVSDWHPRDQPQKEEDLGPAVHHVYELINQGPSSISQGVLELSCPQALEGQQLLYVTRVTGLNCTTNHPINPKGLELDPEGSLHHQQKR
T1 sequence (P08648 895-1049 partner limits assumed): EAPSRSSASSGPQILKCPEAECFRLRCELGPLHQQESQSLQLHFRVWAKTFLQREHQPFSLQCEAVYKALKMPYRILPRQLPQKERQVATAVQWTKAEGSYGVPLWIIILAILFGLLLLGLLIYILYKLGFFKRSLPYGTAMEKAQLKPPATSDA
T1 sequence (P05556 21-798): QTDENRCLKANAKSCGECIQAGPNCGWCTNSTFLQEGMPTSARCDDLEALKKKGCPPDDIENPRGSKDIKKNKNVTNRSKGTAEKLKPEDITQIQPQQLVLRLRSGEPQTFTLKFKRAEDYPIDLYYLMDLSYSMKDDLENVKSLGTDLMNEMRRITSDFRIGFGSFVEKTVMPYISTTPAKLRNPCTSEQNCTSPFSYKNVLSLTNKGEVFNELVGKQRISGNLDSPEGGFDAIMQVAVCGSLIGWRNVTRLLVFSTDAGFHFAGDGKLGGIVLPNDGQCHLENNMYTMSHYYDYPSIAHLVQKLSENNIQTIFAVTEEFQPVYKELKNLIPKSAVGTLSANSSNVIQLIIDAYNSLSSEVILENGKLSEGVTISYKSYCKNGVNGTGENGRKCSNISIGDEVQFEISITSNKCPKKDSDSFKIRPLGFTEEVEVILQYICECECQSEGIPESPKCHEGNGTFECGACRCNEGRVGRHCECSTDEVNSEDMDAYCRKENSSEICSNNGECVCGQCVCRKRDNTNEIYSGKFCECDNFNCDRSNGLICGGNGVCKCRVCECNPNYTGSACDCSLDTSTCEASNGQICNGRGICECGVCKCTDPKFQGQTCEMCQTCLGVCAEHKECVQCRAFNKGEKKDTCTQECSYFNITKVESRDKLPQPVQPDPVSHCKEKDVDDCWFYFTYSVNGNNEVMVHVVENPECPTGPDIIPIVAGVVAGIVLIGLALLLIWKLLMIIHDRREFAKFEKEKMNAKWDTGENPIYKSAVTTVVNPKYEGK

B1: irisin: secreted cleaved form of FNDC5; recombinant human/mouse irisin with C-terminal his tag produced in HEK293 cells (protein)
chain: DSPSAPVNVTVRHLKANSAVVSWDVLEDEVVIGFAISQQKKDVRMLRFIQEVNTTTRSCALWDLEEDTEYIVHVQAISIQGQSPASEPVLFKTPREAEKMASKNKDEVTMKE
modifications: left off: small tags and cut ends
notes: secreted cleaved form of FNDC5; recombinant human/mouse irisin with C-terminal his tag produced in HEK293 cells
In the case of B1, the “phosphorylation of FAK upon irisin treatment” value is reported as “little phosphorylation of FAK above background”.
